Measurements published in article PMC2580753.
Where two headings read alike, the source gives them in different places.

Key:
Experiment in all cases: SPR
[1] = target: mIgA1κ (monomeric myeloma IgA1, kappa light chain) (UniProt P01876); conditions: pH 7.4, 25 °C, 150 mM NaCl, TBS-P: 20 mM Tris
[2] = target: Fcα (IgA1-Fc core fragment, CH2-CH3) (UniProt P01876); conditions: pH 7.4, 25 °C, 150 mM NaCl, TBS-P: 20 mM Tris
[3] = target: mIgA1κ (monomeric myeloma IgA1, kappa light chain) (UniProt P01876); conditions: pH 7.4, 25 °C, 150 mM NaCl, TBS-P: 20 mM Tris; remark: listed apart in the source
[4] = target: Monomeric myeloma patient-derived IgA1κ (mIgA1κ) (human)
[5] = target: Monomeric myeloma patient-derived IgA1λ (mIgA1λ) (human)
[6] = target: Monomeric IgA1 (Mce), a naturally undergalactosylated myeloma IgA1 protein (human)
[7] = target: Monomeric myeloma patient-derived IgA1κ (mIgA1κ) (human); remark: listed apart in the source
[8] = target: Deglycosylated mIgA1κ (N-glycans removed enzymatically) (human)
[9] = target: Monomeric myeloma patient-derived IgA1κ (mIgA1κ) (human); remark: listed apart in the source
[10] = target: Deglycosylated mIgA1κ (N-glycans removed enzymatically) (human); remark: listed apart in the source

Soluble recombinant FcαRI ectodomain, sequence (P24071 22-227): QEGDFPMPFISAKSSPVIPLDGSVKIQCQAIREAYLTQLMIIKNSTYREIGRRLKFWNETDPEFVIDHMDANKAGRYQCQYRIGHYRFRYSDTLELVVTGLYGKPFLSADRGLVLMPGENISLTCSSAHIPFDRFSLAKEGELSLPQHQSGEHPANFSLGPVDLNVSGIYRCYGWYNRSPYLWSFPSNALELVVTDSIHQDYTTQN
mIgA1κ (monomeric myeloma IgA1, kappa light chain), sequence (P01876 whole entry, the tested form may be a part): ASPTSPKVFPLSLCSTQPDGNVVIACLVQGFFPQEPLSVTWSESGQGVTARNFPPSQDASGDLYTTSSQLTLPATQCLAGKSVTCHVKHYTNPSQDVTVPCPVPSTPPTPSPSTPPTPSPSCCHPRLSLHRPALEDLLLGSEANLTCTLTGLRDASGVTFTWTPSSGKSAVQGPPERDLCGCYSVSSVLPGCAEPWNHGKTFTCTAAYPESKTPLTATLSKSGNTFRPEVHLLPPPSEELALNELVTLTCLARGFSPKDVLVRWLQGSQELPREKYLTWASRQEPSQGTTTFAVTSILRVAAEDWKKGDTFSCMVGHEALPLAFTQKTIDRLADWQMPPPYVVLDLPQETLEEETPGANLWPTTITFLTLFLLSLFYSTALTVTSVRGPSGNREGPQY
Fcα (IgA1-Fc core fragment, CH2-CH3), sequence (P01876 whole entry, the tested form may be a part): as above

How did the k1off [1] turn out when FcαRI (CD89) soluble ectodomain was run?
The k1off was 0.0267 s⁻¹.

What about the k1on [1] of the same substance?
Its k1on is 317000 M/s.

What about the k2off [1] of the same substance?
The k2off was 0.096 s⁻¹.

What about the k2on [1] of the same substance?
Its k2on is 315000 M/s.

What about the k1off [2] of the same substance?
Its k1off is 0.0278 s⁻¹.

And the k1on [2]?
Its k1on is 461000 M/s.

What about the k2off [2] of the same substance?
The k2off was 0.054 s⁻¹.

And the k2on [2]?
Its k2on is 447000 M/s.

And the k1off [3]?
Its k1off is 0.0266 s⁻¹.

And the k1on [3]?
Its k1on is 355000 M/s.

What about the k2off [3] of the same substance?
Its k2off is 0.074 s⁻¹.

What about the k2on [3] of the same substance?
Its k2on is 304000 M/s.

How did the KD1 (first binding event) [4] turn out when “Soluble recombinant FcαRI ectodomain (from UniProt P24071 22-227) (receptor)” was run?
The KD1 (first binding event) was 74.9 nM.

What about the KD1 (two-site equilibrium model) [4] of the same substance?
Its KD1 (two-site equilibrium model) is 40.2 nM.

And the KD1 at pH 5.5 (first binding event) [4]?
Its KD1 at pH 5.5 (first binding event) is 837 nM.

What about the KD2 (second binding event) [4] of the same substance?
Its KD2 (second binding event) is 244 nM.

What about the KD2 (two-site equilibrium model) [4] of the same substance?
The KD2 (two-site equilibrium model) was 452 nM.

What about the KD2 at pH 5.5 (second binding event) [4] of the same substance?
Its KD2 at pH 5.5 (second binding event) is 2.53 μM.

What about the k1off (first binding event) [4] of the same substance?
Its k1off (first binding event) is 0.0266 s⁻¹.

And the k1on (first binding event) [4]?
The k1on (first binding event) was 355000 M/s.

And the k2on (second binding event) [4]?
Its k2on (second binding event) is 304000 M/s.

And the KD1 (two-site equilibrium model) [5]?
The KD1 (two-site equilibrium model) was 47.6 nM.

And the KD2 (second binding event) [5]?
Its KD2 (second binding event) is 195 nM.

And the KD2 (two-site equilibrium model) [5]?
Its KD2 (two-site equilibrium model) is 371 nM.

What about the k1off (first binding event) [5] of the same substance?
The k1off (first binding event) was 0.0254 s⁻¹.

And the k1on (first binding event) [5]?
The k1on (first binding event) was 312000 M/s.

What about the k2off (second binding event) [5] of the same substance?
Its k2off (second binding event) is 0.102 s⁻¹.

What about the k2on (second binding event) [5] of the same substance?
Its k2on (second binding event) is 525000 M/s.

What about the KD1 (first binding event) [6] of the same substance?
Its KD1 (first binding event) is 72.3 nM.

And the KD1 (two-site equilibrium model) [6]?
The KD1 (two-site equilibrium model) was 40.8 nM.

What about the KD2 (second binding event) [6] of the same substance?
Its KD2 (second binding event) is 222 nM.

And the KD2 (two-site equilibrium model) [6]?
Its KD2 (two-site equilibrium model) is 403 nM.

What about the KD1 (two-site equilibrium model) [7] of the same substance?
Its KD1 (two-site equilibrium model) is 45 nM.

And the KD2 (two-site equilibrium model) [7]?
Its KD2 (two-site equilibrium model) is 571 nM.

And the KD1 (two-site equilibrium model) [8]?
Its KD1 (two-site equilibrium model) is 42.6 nM.

What about the KD2 (two-site equilibrium model) [8] of the same substance?
Its KD2 (two-site equilibrium model) is 582 nM.

And the k1off (first binding event) [9]?
The k1off (first binding event) was 0.0267 s⁻¹.

What about the k1on (first binding event) [9] of the same substance?
The k1on (first binding event) was 317000 M/s.

And the k2on (second binding event) [9]?
The k2on (second binding event) was 315000 M/s.

And the KD1 (first binding event) [10]?
Its KD1 (first binding event) is 78.4 nM.

And the KD2 (second binding event) [10]?
The KD2 (second binding event) was 320 nM.

What about the k1off (first binding event) [10] of the same substance?
The k1off (first binding event) was 0.0258 s⁻¹.

And the k1on (first binding event) [10]?
The k1on (first binding event) was 329000 M/s.

And the k2on (second binding event) [10]?
The k2on (second binding event) was 187000 M/s.
